{"source": "the Immune Epitope Database (IEDB)", "key": {"[1]": {"biological_target": "HLA-A*01:01", "assay": "IEDB peptide-MHC binding, purified MHC/direct/fluorescence; filed as Kd, often an IC50 or EC50 that approximates it; ≥ and ≤ were set here for values at or beyond the usual limits of such assays", "conditions": "source organism: Vibrio vulnificus"}, "[2]": {"biological_target": "HLA-A*02:01", "assay": "IEDB peptide-MHC binding, purified MHC/direct/fluorescence; filed as Kd, often an IC50 or EC50 that approximates it; ≥ and ≤ were set here for values at or beyond the usual limits of such assays", "conditions": "source organism: Vibrio vulnificus"}, "[3]": {"biological_target": "HLA-A*03:01", "assay": "IEDB peptide-MHC binding, purified MHC/direct/fluorescence; filed as Kd, often an IC50 or EC50 that approximates it; ≥ and ≤ were set here for values at or beyond the usual limits of such assays", "conditions": "source organism: Vibrio vulnificus"}, "[4]": {"biological_target": "HLA-A*11:01", "assay": "IEDB peptide-MHC binding, purified MHC/direct/fluorescence; filed as Kd, often an IC50 or EC50 that approximates it; ≥ and ≤ were set here for values at or beyond the usual limits of such assays", "conditions": "source organism: Vibrio vulnificus"}, "[5]": {"biological_target": "HLA-A*26:01", "assay": "IEDB peptide-MHC binding, purified MHC/direct/fluorescence; filed as Kd, often an IC50 or EC50 that approximates it; ≥ and ≤ were set here for values at or beyond the usual limits of such assays", "conditions": "source organism: Vibrio vulnificus CMCP6"}, "[6]": {"biological_target": "HLA-A*31:01", "assay": "IEDB peptide-MHC binding, purified MHC/direct/fluorescence; filed as Kd, often an IC50 or EC50 that approximates it; ≥ and ≤ were set here for values at or beyond the usual limits of such assays", "conditions": "source organism: Vibrio vulnificus"}, "[7]": {"biological_target": "HLA-A*68:02", "assay": "IEDB peptide-MHC binding, purified MHC/direct/fluorescence; filed as Kd, often an IC50 or EC50 that approximates it; ≥ and ≤ were set here for values at or beyond the usual limits of such assays", "conditions": "source organism: Vibrio vulnificus"}, "[8]": {"biological_target": "HLA-A*69:01", "assay": "IEDB peptide-MHC binding, purified MHC/direct/fluorescence; filed as Kd, often an IC50 or EC50 that approximates it; ≥ and ≤ were set here for values at or beyond the usual limits of such assays", "conditions": "source organism: Vibrio vulnificus"}, "[9]": {"biological_target": "HLA-B*07:02", "assay": "IEDB peptide-MHC binding, purified MHC/direct/fluorescence; filed as Kd, often an IC50 or EC50 that approximates it; ≥ and ≤ were set here for values at or beyond the usual limits of such assays", "conditions": "source organism: Vibrio vulnificus"}, "[10]": {"biological_target": "HLA-B*08:03", "assay": "IEDB peptide-MHC binding, purified MHC/direct/fluorescence; filed as Kd, often an IC50 or EC50 that approximates it; ≥ and ≤ were set here for values at or beyond the usual limits of such assays", "conditions": "source organism: Vibrio vulnificus CMCP6"}, "[11]": {"biological_target": "HLA-B*15:01", "assay": "IEDB peptide-MHC binding, purified MHC/direct/fluorescence; filed as Kd, often an IC50 or EC50 that approximates it; ≥ and ≤ were set here for values at or beyond the usual limits of such assays", "conditions": "source organism: Vibrio vulnificus"}, "[12]": {"biological_target": "HLA-B*15:02", "assay": "IEDB peptide-MHC binding, purified MHC/direct/fluorescence; filed as Kd, often an IC50 or EC50 that approximates it; ≥ and ≤ were set here for values at or beyond the usual limits of such assays", "conditions": "source organism: Vibrio vulnificus CMCP6"}, "[13]": {"biological_target": "HLA-B*15:09", "assay": "IEDB peptide-MHC binding, purified MHC/direct/fluorescence; filed as Kd, often an IC50 or EC50 that approximates it; ≥ and ≤ were set here for values at or beyond the usual limits of such assays", "conditions": "source organism: Vibrio vulnificus CMCP6"}, "[14]": {"biological_target": "HLA-B*15:17", "assay": "IEDB peptide-MHC binding, purified MHC/direct/fluorescence; filed as Kd, often an IC50 or EC50 that approximates it; ≥ and ≤ were set here for values at or beyond the usual limits of such assays", "conditions": "source organism: Vibrio vulnificus"}, "[15]": {"biological_target": "HLA-B*27:05", "assay": "IEDB peptide-MHC binding, purified MHC/direct/fluorescence; filed as Kd, often an IC50 or EC50 that approximates it; ≥ and ≤ were set here for values at or beyond the usual limits of such assays", "conditions": "source organism: Vibrio vulnificus"}, "[16]": {"biological_target": "HLA-B*46:01", "assay": "IEDB peptide-MHC binding, purified MHC/direct/fluorescence; filed as Kd, often an IC50 or EC50 that approximates it; ≥ and ≤ were set here for values at or beyond the usual limits of such assays", "conditions": "source organism: Vibrio vulnificus"}, "[17]": {"biological_target": "HLA-B*48:01", "assay": "IEDB peptide-MHC binding, purified MHC/direct/fluorescence; filed as Kd, often an IC50 or EC50 that approximates it; ≥ and ≤ were set here for values at or beyond the usual limits of such assays", "conditions": "source organism: Vibrio vulnificus"}, "[18]": {"biological_target": "HLA-B*57:01", "assay": "IEDB peptide-MHC binding, purified MHC/direct/fluorescence; filed as Kd, often an IC50 or EC50 that approximates it; ≥ and ≤ were set here for values at or beyond the usual limits of such assays", "conditions": "source organism: Vibrio vulnificus"}, "[19]": {"biological_target": "HLA-B*58:01", "assay": "IEDB peptide-MHC binding, purified MHC/direct/fluorescence; filed as Kd, often an IC50 or EC50 that approximates it; ≥ and ≤ were set here for values at or beyond the usual limits of such assays", "conditions": "source organism: Vibrio vulnificus"}, "[20]": {"biological_target": "HLA-A*02:03", "assay": "IEDB peptide-MHC binding, purified MHC/competitive/fluorescence; filed as Kd, often an IC50 or EC50 that approximates it; ≥ and ≤ were set here for values at or beyond the usual limits of such assays", "conditions": "source organism: Vibrio vulnificus YJ016"}, "[21]": {"biological_target": "HLA-A*30:01", "assay": "IEDB peptide-MHC binding, purified MHC/competitive/fluorescence; filed as Kd, often an IC50 or EC50 that approximates it; ≥ and ≤ were set here for values at or beyond the usual limits of such assays", "conditions": "source organism: Vibrio vulnificus YJ016"}, "[22]": {"biological_target": "HLA-A*32:07", "assay": "IEDB peptide-MHC binding, purified MHC/competitive/fluorescence; filed as Kd, often an IC50 or EC50 that approximates it; ≥ and ≤ were set here for values at or beyond the usual limits of such assays", "conditions": "source organism: Vibrio vulnificus YJ016"}, "[23]": {"biological_target": "HLA-B*08:01", "assay": "IEDB peptide-MHC binding, purified MHC/competitive/fluorescence; filed as Kd, often an IC50 or EC50 that approximates it; ≥ and ≤ were set here for values at or beyond the usual limits of such assays", "conditions": "source organism: Vibrio vulnificus YJ016"}, "[24]": {"biological_target": "HLA-B*15:42", "assay": "IEDB peptide-MHC binding, purified MHC/competitive/fluorescence; filed as Kd, often an IC50 or EC50 that approximates it; ≥ and ≤ were set here for values at or beyond the usual limits of such assays", "conditions": "source organism: Vibrio vulnificus YJ016"}, "[25]": {"biological_target": "HLA-B*27:20", "assay": "IEDB peptide-MHC binding, purified MHC/competitive/fluorescence; filed as Kd, often an IC50 or EC50 that approximates it; ≥ and ≤ were set here for values at or beyond the usual limits of such assays", "conditions": "source organism: Vibrio vulnificus YJ016"}, "[26]": {"biological_target": "HLA-B*39:01", "assay": "IEDB peptide-MHC binding, purified MHC/competitive/fluorescence; filed as Kd, often an IC50 or EC50 that approximates it; ≥ and ≤ were set here for values at or beyond the usual limits of such assays", "conditions": "source organism: Vibrio vulnificus YJ016"}, "[27]": {"biological_target": "HLA-B*40:13", "assay": "IEDB peptide-MHC binding, purified MHC/competitive/fluorescence; filed as Kd, often an IC50 or EC50 that approximates it; ≥ and ≤ were set here for values at or beyond the usual limits of such assays", "conditions": "source organism: Vibrio vulnificus YJ016"}, "[28]": {"biological_target": "HLA-B*45:06", "assay": "IEDB peptide-MHC binding, purified MHC/competitive/fluorescence; filed as Kd, often an IC50 or EC50 that approximates it; ≥ and ≤ were set here for values at or beyond the usual limits of such assays", "conditions": "source organism: Vibrio vulnificus YJ016"}, "[29]": {"biological_target": "HLA-B*83:01", "assay": "IEDB peptide-MHC binding, purified MHC/competitive/fluorescence; filed as Kd, often an IC50 or EC50 that approximates it; ≥ and ≤ were set here for values at or beyond the usual limits of such assays", "conditions": "source organism: Vibrio vulnificus YJ016"}}, "note": "pKd: −log10 of the molar value."}
{"sequence": "YQRALHTSI", "values": [{"measurement": "pKd", "setting": "[1]", "value": "≤ 4.70"}, {"measurement": "pKd", "setting": "[2]", "value": "≤ 4.70"}, {"measurement": "pKd", "setting": "[3]", "value": "≤ 4.70"}, {"measurement": "pKd", "setting": "[4]", "value": "≤ 4.70"}, {"measurement": "pKd", "setting": "[5]", "value": "≤ 4.70"}, {"measurement": "pKd", "setting": "[6]", "value": "≤ 4.70"}, {"measurement": "pKd", "setting": "[7]", "value": "≤ 4.70"}, {"measurement": "pKd", "setting": "[8]", "value": "≤ 4.70"}, {"measurement": "pKd", "setting": "[9]", "value": 5.15}, {"measurement": "pKd", "setting": "[10]", "value": 7.26}, {"measurement": "pKd", "setting": "[11]", "value": 7.02}, {"measurement": "pKd", "setting": "[12]", "value": 6.51}, {"measurement": "pKd", "setting": "[13]", "value": "≤ 4.70"}, {"measurement": "pKd", "setting": "[14]", "value": 6.89}, {"measurement": "pKd", "setting": "[15]", "value": 5.69}, {"measurement": "pKd", "setting": "[16]", "value": "≤ 4.70"}, {"measurement": "pKd", "setting": "[17]", "value": 7.23}, {"measurement": "pKd", "setting": "[18]", "value": "≤ 4.70"}, {"measurement": "pKd", "setting": "[19]", "value": "≤ 4.70"}, {"measurement": "pKd", "setting": "[20]", "value": 8.68}, {"measurement": "pKd", "setting": "[21]", "value": 5.95}, {"measurement": "pKd", "setting": "[22]", "value": 6.34}, {"measurement": "pKd", "setting": "[23]", "value": 6.53}, {"measurement": "pKd", "setting": "[24]", "value": "≤ 4.70"}, {"measurement": "pKd", "setting": "[25]", "value": 9.70}, {"measurement": "pKd", "setting": "[26]", "value": 6.40}, {"measurement": "pKd", "setting": "[27]", "value": 7.22}, {"measurement": "pKd", "setting": "[28]", "value": "≤ 5.30"}, {"measurement": "pKd", "setting": "[29]", "value": "≤ 5.30"}]}
